In PMC6172466 (EMBO Reports, 2018):
Where a chain is given by its changes, count along the chain named. In names and notes the source's numbering stands.

B1: USP4 (8-925) C311A (enzyme, human, UniProt Q13107 8-925, looked up)
chain: RERPDAETQKSELGPLMRTTLQRGAQWYLIDSRWFKQWKKYVGFDSWDMYNVGEHNLFPGPIDNSGLFSDPESQTLKEHLIDELDYVLVPTEAWNKLLNWYGCVEGQQPIVRKVVEHGLFVKHCKVEVYLLELKLCENSDPTNVLSCHFSKADTIATIEKEMRKLFNIPAERETRLWNKYMSNTYEQLSKLDNTVQDAGLYQGQVLVIEPQNEDGTWPRQTLQSKSSTAPSRNFTTSPKSSASPYSSVSASLIANGDSTSTCGMHSSGVSRGGSGFSASYNCQEPPSSHIQPGLCGLGNLGNTAFMNSALQCLSNTAPLTDYFLKDEYEAEINRDNPLGMKGEIAEAYAELIKQMWSGRDAHVAPRMFKTQVGRFAPQFSGYQQQDSQELLAFLLDGLHEDLNRVKKKPYLELKDANGRPDAVVAKEAWENHRLRNDSVIVDTFHGLFKSTLVCPECAKVSVTFDPFCYLTLPLPLKKDRVMEVFLVPADPHCRPTQYRVTVPLMGAVSDLCEALSRLSGIAAENMVVADVYNHRFHKIFQMDEGLNHIMPRDDIFVYEVCSTSVDGSECVTLPVYFRERKSRPSSTSSASALYGQPLLLSVPKHKLTLESLYQAVCDRISRYVKQPLPDEFGSSPLEPGACNGSRNSCEGEDEEEMEHQEEGKEQLSETEGSGEDEPGNDPSETTQKKIKGQPCPKRLFTFSLVNSYGTADINSLAADGKLLKLNSRSTLAMDWDSETRRLYYDEQESEAYEKHVSMLQPQKKKKTTVALRDCIELFTTMETLGEHDPWYCPNCKKHQQATKKFDLWSLPKILVVHLKRFSYNRYWRDKLDTVVEFPIRGLNMSEFVCNLSARPYVYDLIAVSNHYGAMGVGHYTAYAKNKLNGKWYYFDDSNVSLASEDQIVTKAAYVLFYQRRDD
notes: human USP4, residues 8-925, active site cysteine C311 changed to alanine; also called USP4^C311A; USP4 C311A
B2: SAGA DUB module containing wild-type Ubp8 (complex, yeast)
chain 1: MSICPHIQQVFQNEKSKDGVLKTCNAARYILNHSVPKEKFLNTMKCGTCHEINSGATFMCLQCGFCGCWNHSHFLSHSKQIGHIFGINSNNGLLFCFKCEDYIGNIDLINDAILAKYWDDVCTKTMVPSMERRDGLSGLINMGSTCFMSSILQCLIHNPYFIRHSMSQIHSNNCKVRSPDKCFSCALDKIVHELYGALNTKQASSSSTSTNRQTGFIYLLTCAWKINQNLAGYSQQDAHEFWQFIINQIHQSYVLDLPNAKEVSRANNKQCECIVHTVFEGSLESSIVCPGCQNNSKTTIDPFLDLSLDIKDKKKLYECLDSFHKKEQLKDFNYHCGECNSTQDAIKQLGIHKLPSVLVLQLKRFEHLLNGSNRKLDDFIEFPTYLNMKNYCSTKEKDKHSENGKVPDIIYELIGIVSHKGTVNEGHYIAFCKISGGQWFKFNDSMVSSISQEEVLKEQAYLLFYTIRQVN
chain 2: MTEETITIDSISNGILNNLLTTLIQDIVARETTQQQLLKTRYPDLRSYYFDPNGSLDINGLQKQQESSQYIHCENCGRDVSANRLAAHLQRCLSRGARR
chain 3: MTMDTAQLKSQIQQYLVESGNYELISNELKARLLQEGWVDKVKDLTKSEMNINESTNFTQILSTVEPKALEMVSDSTRETVLKQIREFLEEIVDTQ
chain 4: MRSGDAEIKGIKPKVIEEYSLSQGSGPSNDSWKSLMSSAKDTPLQYDHMNRESLKKYFNPNAQLIEDPLDKPIQYRVCEKCGKPLALTAIVDHLEN
notes: Ubp8, catalytic USP subunit of the yeast SAGA DUB module; Sgf11, subunit of the yeast SAGA DUB module (pCDFDuet-1 MCSI); Sus1, subunit of the yeast SAGA DUB module (pRSF-1); Sgf73 residues 1-96, subunit of the yeast SAGA DUB module (pCDFDuet-1 MCSII); Heterotetramer; also called DUBm-Ubp8^WT; wild-type DUBm; copies: + + +
B3: SAGA DUB module containing Ubp8^C146S (complex, yeast)
chain 1: B2 chain 1 with C146S
chain 2: B2 chain 2
chain 3: B2 chain 3
chain 4: B2 chain 4
notes: Ubp8, catalytic USP subunit of the yeast SAGA DUB module, active site cysteine changed; Sgf11, subunit of the yeast SAGA DUB module (pCDFDuet-1 MCSI); Sus1, subunit of the yeast SAGA DUB module (pRSF-1); Sgf73 residues 1-96, subunit of the yeast SAGA DUB module (pCDFDuet-1 MCSII); Heterotetramer; also called DUBm-Ubp8^C146S; copies: + + +
B4: SAGA DUB module containing Ubp8^C146A (complex, yeast)
chain 1: B2 chain 1 with C146A
chain 2: B2 chain 2
chain 3: B2 chain 3
chain 4: B2 chain 4
notes: Ubp8, catalytic USP subunit of the yeast SAGA DUB module, active site cysteine changed; Sgf11, subunit of the yeast SAGA DUB module (pCDFDuet-1 MCSI); Sus1, subunit of the yeast SAGA DUB module (pRSF-1); Sgf73 residues 1-96, subunit of the yeast SAGA DUB module (pCDFDuet-1 MCSII); Heterotetramer; also called DUBm-Ubp8^C146A; DUB module-Ubp8^C146A; copies: + + +

Legend:
[1] = molecular target: T1, N-terminally TAMRA-labeled monoubiquitin (UniProt P0CG48 1-76, TAMRA on the N-terminus); assay: fluorescence polarisation; equilibrium binding of USP4 to TAMRA-labelled ubiquitin species; as described in ref. 32; conditions: both partners purified
T1 construct: ubiquitin with a free C-terminus; also called TAMRA-monoubiquitin; ubiquitin labeled with an N-terminal fluorophore

ubiquitin (untagged) = molecular target: T2, ubiquitin (untagged) (UniProt P0CG48 1-76); assay: ITC; 30 μM DUBm in the cell, 0.3 mM K48-linked diubiquitin or monoubiquitin injected; 25°C; 20 mM HEPES pH 7, 150 mM NaCl, 5 nM ZnCl2, 0.5 mM TCEP; one-site binding model; conditions: both partners purified
T2 construct: ubiquitin, untagged (pET3a), free C-terminus at Gly76; also called monoubiquitin; free ubiquitin; source: E. coli Rosetta 2, purified (perchloric acid, HiTrap SP, HiLoad S75)

Row | Binder | Kd [1] [µM] | Kd (ubiquitin (untagged)) [µM]
1 | B1 | 0.0006 ± 0.00017 | –
2 | B2 | – | 13.9
3 | B3 | – | 12.8
4 | B4 | – | 0.43
